# Results taken from the nanobody polyreactivity screen of Harvey et al. (2022).
# Assay: yeast display, Sf9 membrane polyspecificity reagent, FACS + sequencing; frameworks hold sequencing errors
# Procedure, shortened: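 Nanobodies from a synthetic yeast display library (Saccharomyces cerevisiae BJ5465), induced 36–48 hours with galactose, were stained 1 hour at 4 °C with 10% biotinylated, detergent-solubilized Sf9 membrane reagent, enriched on streptavidin microbeads, then FACS-sorted. Anti-HA (expression) and streptavidin (reagent binding) fluorescence set low and high (top ~1%) gates. Polyreactivity labels come from the gate of origin. Genes were colony-PCR amplified, MiSeq 2 × 250 sequenced and filtered by CDR length.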
row,Sequence,polyreactivity (PSR sort gate)
1,QVQLVESGGGLVQAGRSLRLSCAASGITFTGYALGWSRQATGKERELVAAISKRGARTYYADSVKGRFTISRDNAKNTVYLQMNSLKPEDTAVYYCAADSTAQDIAGLYYWGQGTQVTVSS,high polyreactivity
2,QVQLVESGGGLVQAGRSLRLSCAASGLTFLYYAMGWYRHAPAKEMEFVAANSNRDGSTYYADSVKGRFTISRDNAKNTVYLQMNSLKPEDTAGYYCYADGYVDYCFLKYRFEFDYWGQGTQVTVSS,low polyreactivity
3,QVQLVESGGGLVQAGRSLRLSCAASGLTFVNYTMGCYRQAPGKEREFVAAITSSGGSSTYYADSVKGRFTHSRDNAKNTVYLQMNSLYPEDTAVYYCAAGFTLYVDIVILTVNTVDYWGQGTQVTVSS,low polyreactivity
4,QVQLVESGGGLVQAGRSLRLSCAASGNTFWFYGMGWYRQAPGKVRELVAAITSGGSTDYADSVKGRFTISRENAKNTVSLQMNSLKPEDTAVYYCAAEPVAYYGSSYGYWGQGTQVTVSS,low polyreactivity
5,QVQLVESGGGLVQAGRSLRLSCAASGRIFTPNAMGWYRQAPGKERELVAAISSSGRTSYADSLKGRFTNTSDNAKITVYLQMNSLKPEDTAVYYCNATWRWTRRGYDYWGQGTQVTVSS,low polyreactivity
6,QVQLVESGGGLVQAGRSLRLSCAASGRTFDEYAMGWYRQAPGKERELVAAISARGGRTYYADSVKGRFTISRDNAKNTVYLQMNSLKPEDTAVYYCAAAGYITRYDRYDYWGQGTQVTVSS,high polyreactivity
7,QVQLVESGGGLVQAGRSLRLSCAASGRTFYHYAMGWYRQAPGKERELVAAIDWSTASTYYADSVKGRFTISRDNAKNTVYLQMNSLIQEDTAVYYCATDSAILINFVLYDYWGQGTQVTVSS,low polyreactivity
8,QVQLVESGGGLVQAGRSLRLSCAASGRTFYYYAMVWNRQAPGKERELVAAISWRSGSTYYADSVKGRFTISRDNAKNTLYLQMNSLKPEDTAVYYCATSVRFYWFADGYWGQGTQVTVSS,high polyreactivity
9,QVQLVESGGGLVQAGRSLRLSCAASGSIFYKYARGWYRQAPGKERELVAAISRSRGSTYYADSVKGRFTISRDNAKNTVYLQMNSLKPEDTAVYYCNAYYRYSFSELDKYGYWGQGTQVTVSS,high polyreactivity
10,QVQLVESGGGLVQAGRSLRLSCAASGSTLTRNAMGWYRQAPGKERELVAAITQRGGSTYYADSVKGRFTISRDNAKNTVYLQMNSLKPEDTAVYYCAAAYRGYARHDYWGQGTQVNVSS,high polyreactivity
11,QVQLVESGGGLVQAGRSLRLSCPASGSTFYTNHMGWYRQAPGKERELVAAITSAGNTNYADSVKGRFTISRDNAKNTVYLQMNSLKPEDTAVYYYYYYQYDYWGQGTQVTVSS,low polyreactivity
12,QVQLVESGGGLVQAGSSLRLSCAASGFTFNRYAMGWYRQAPGKERELVAAISWSGGSTYYADSVKGRFTISRDNAKNTVYLQMNSLKPEDTEVYYCSDATAYYRYRGGYDYWGQGTQVTVSS,high polyreactivity
13,QVQLVESGGGLVQAGVSLLLSCAASGSTLYYNAMGWYRQAPGKERELVAAITSGGSTSYADSVKGRFTISRDNAKHTVYLQRNSLKPEDTAVYYCAAVFYRRFDYWGQGTQVTVSS,low polyreactivity
14,QVQLVESGGGLVQAGVSLRLRCASSGSTFAYNAMGWYRQAPGKESELVAAISTSGGYTYYADSVKGRFTISRDNAKNTVYLQMNSLKPEDTAVYYCYAVGRSKHGYSRSYYWGQGTQVTVSS,high polyreactivity
15,QVQLVESGGGLVQAGVSLRLSCAASGFIFRTYAMGWYRQAPGKEREVVAAITGRGGTTYYADSVKGRFTISRDNAKNTVYLQMNSLKPEDTAVYYCAARGRVSVNTQRYAAYNYLGQGTQVTVSS,high polyreactivity
16,QVQLVESGGGLVQAGVSLRLSCAASGFIYDHNAMGWYRQAPGKERELVAAITRSGGSTYYAYSVKGRFTISRDNAKNTVYLQMNSLKQEDTAVYYCNADAYGTPEFTSYAVRYDYWGQGTQVTVSS,low polyreactivity
17,QVQLVESGGGLVQAGVSLRLSCAASGFTFSRNAMGWYRQAPGKERELVAAISRSGGSTYYAYSVKGRFTISRDNAKNTVYLQINSLKQEDTAVYYCATSCTPNYFVTSDYWGQGTQVTVSS,high polyreactivity
18,QVQLVESGGGLVQAGVSLRLSCAASGRIFGPYAMGWYRQAPGKERELVAAITWRGDRTYYADSVKGRFTISRDNAKNTVYLQMNSLKPEDTAVYYCAARGGRSEYDYWGLGTQVTVSS,low polyreactivity
19,QVQLVESGGGLVQAGVSLRLSCAASGRIFYPYVMGWYRQAPGKERELVAAISDSTGSTYYADSVKGRFTISRDNAKNTVYLQMNSLKPEDTAVYYCAAGWFYATYWRFYYWGQGTQVTVSS,low polyreactivity
20,QVQLVESGGGLVQAGVSLRLSCAASGRLFYRYAMGWYRQAPGKERELVAGISRGGSTNYADSVKGRFTISRDNAKNTVYLLMKSLKPEDSAVYYCAADAKRTLSYEFGYWGQGTQVTVSS,high polyreactivity
21,QVQLVESGGGLVQAGVSLRLSCAASGRTFEDKAMGSDRQAPGKERELVAAISSDGSTNYADSVKGRFTISRDNAKYTVYLQKYSLKPVDTAVYYCNSTVYWPYDWSTSDYWGQGTQVTVSS,low polyreactivity

row,Sequence,polyreactivity (PSR sort gate)
1,QVQLVESGGGLVQAGVSLRLSCAASGRTFGHYTMGWYRQAPGKERELVARISRTGSTKYADSVKGPFTISRDNAKNTVYLQMNSLKPEDTAVYYCARVQAGGYGERVYAYHYDYWGQGTQVTVSS,high polyreactivity
2,QVQLVESGGGLVQAGVSLRLSCAASGRTFSYYVMGWYRQAPGKETELVAAITTRTSSTYYADSVKGRFTISRDNAKNTVYLQMNSLKPEDTAVYYCARRPRARAYNYWGQGTQVTVSS,high polyreactivity
3,QVQLVESGGGLVQAGVSLRLSCAASGRTFVSNAMGWYRQAPGKEREFVAAIRDSGGRTYYADSVKGRFTISRDNANNTVYLQMTSLIPEDTAVYYCATRGVSPSRPGYYWGQGTQVTVSS,high polyreactivity
4,QVQLVESGGGLVQAGVSLRLSCAASGRTLRRTAMGWYRQAPGTERELVAAISSIGGSTYYADSVKGRFTISRDNAKITVYLQMNSLKPEDTAVYYCAADILIYPYSYDYYWGQGTQVTVSS,high polyreactivity
5,QVQLVESGGGLVQAGVSLRLSCAASGSIFGRYAMGWYRQAPGKERELVAAINDDSGRTYYADSVKGRFTISRDNAKNTVYLQKNSLKPEDTAVYYCATGRQSEYDYWGQGTQVTVSS,high polyreactivity
6,QVQLVESGGGLVQAGVSLRLSCAASGSIFRHNAMGWYRQAPGKERELVAAINWSGGRTYYADSVKGRFTISRDNAKNTVYLHMNSLKPEDTAVYYCADPVPRSWYDYWGQGTQVTVSS,high polyreactivity
7,QVQLVESGGGLVQAGVSLRLSCAASGSIFYAYAMGWYRQAPGKERELVAVINSGGSTYYADSVKGRFRISSEYAKNTVYLQMNSLKPEDTAVYYCNGTQYRGKYDYPPPGRGYYYWGQGTHVTVSS,high polyreactivity
8,QVQLVESGGGLVQAGVSLRLSCAASGSIIWVYAMGWYRQAPGNERELVAAITSGVSTYYADSVKGRFTISRDNAKNTVYFQMNSLKPEETAVYYCAVVGGFRWIRMEYWGQGTQVTVSS,low polyreactivity
9,QVQLVESGGGLVQAGVSLRLSCAASGSILTINAMGLYRQAPGKERELVPAITSGGGSTYYADSVKGRFTISRDNAKNTVYLQMNSLKPEDTAVYYCNKVFVLPYKFVAWFDYWGQGTQVTVSS,low polyreactivity
10,QVQLVESGGGLVQAGVSLRLSCAASGSTFGRYTMGWYRQAPGKERELVAVITRGGDSTYYADSVKWRFTISRDNAKNTVYLQMNSLKPEDTAVYYCNAETNDWYYQAYLEVEYWGQGTQETVSS,low polyreactivity
11,QVQLVESGGGLVQAGVSLRLSCAASGSTFGWYAMGWYRQAPGKERELVAAISASGGSTYYADSVKGRFTISRDNAKNNVYLQMNSLKPEDTAVYYCAVRAWKFLTRYDYWGQGTKVTVSS,high polyreactivity
12,QVQLVESGGGLVQAGVSLRLSCAASGSTFTGTAMGWYIQAPGKERELVASINGSSGSTYYADSVKGRFTISRDNAKNTVYLQMNSLKPEDTAVYYCAKDSFLHFPRVGWVGLEYWGQGTQVTLSS,low polyreactivity
13,QVQLVESGGGLVQAGVSLRLSCAASGSTFTYNAKGWYRQEPGKEMELVAAIRSNGGSTYADSVKGRFTISRDNAKNTVYFQMNSMKPEDTAVYYCAARWRDYYRWGSRGGYGYWGQGTQVTVSS,high polyreactivity
14,QVQLVESGGGLVQAGVSLRLSCAASGSTFYDIAMGWYRQATGKDRELVAAISYSGASTYYADSVKGRFTISRDNAKNTVYLHINSLKPEDTAVYYCAKTFYTLYWGQGTKVTVSS,low polyreactivity
15,QVQLVESGGGLVQAGVSLRLSCAASGSTLYGYAMGWYRQAPGKERELVAAINTGGSTNYADSVKGRFTISRDNSKNTVYLQMNSLKPEDTAVYYCAASYSLTFWDKDDYWGQGTQVTVSS,low polyreactivity
16,QVQLVESGGGLVQAGVSLRLSCAASGYIIIVYTMGWYRQAPGKERELVAAISSGGITDYADSVKGRFTISRDNAKNTVYLQMNSLKPEDTAVYYWGQGTQVTVSS,low polyreactivity
17,QVQLVESGGGLVQAGVSLRLSCAAYGRIFGPYAMGWYRQAPGKERELVATITWRTGSTYYADSVKGRFTISRDNAKNTVYLQMNSLKPEDTAVYYCAARYGRYSKAGDYWGLGTQVTVSS,high polyreactivity
18,QVQLVESGGGLVQAGVSLRLSCVPPDLPSTLNVMGWYRQAPGKERELVAAITSSGGSTRYADCVKGRFTISRDNAKNTVYLQMNSLKPEDTAVYYCAASRDKYGNRVRPFDYWGQGTQVTVSS,low polyreactivity
19,QVQLVESGGGLVQARGSLRLSCAASGFGWYAMGWYRQAPGKEREFVAAISRGGGSTYYADSVKGRFTISRDNAKNTVYLQMNSLKQEDTAVYYCAAVYYRRISQGDTQTYYQYNYWGQGTKVTVSS,high polyreactivity
20,QVQLVESGGGLVQARGSLRLSCAASGFIFSYYAMGWYRQAPGKERELVAAISSSGGTTYADSVKGRFTISRDNAKNTVYLQMNSLKPEDTAVYYCARVQYWFYKPMYYWGQGTQVTVSS,high polyreactivity
